According to patent US20240352156A1 (BIOGRAPH 55, published 2024):

T1: CD19 (antigen in solution, Octet assays) (human, UniProt P15391 20-291, limits assumed)
T1 construct: also called Cluster of Differentiation 19; B4
T1 sequence (looked up): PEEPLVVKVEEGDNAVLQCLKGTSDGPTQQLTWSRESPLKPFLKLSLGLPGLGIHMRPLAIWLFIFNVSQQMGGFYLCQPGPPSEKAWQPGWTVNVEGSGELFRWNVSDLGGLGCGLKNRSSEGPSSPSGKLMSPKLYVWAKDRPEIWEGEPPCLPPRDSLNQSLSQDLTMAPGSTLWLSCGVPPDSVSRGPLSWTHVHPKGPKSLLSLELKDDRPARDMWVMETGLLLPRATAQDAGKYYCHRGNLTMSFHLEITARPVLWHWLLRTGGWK

B1: 851A = anti-CD19 3C10 (antibody, V domains shown)
VH: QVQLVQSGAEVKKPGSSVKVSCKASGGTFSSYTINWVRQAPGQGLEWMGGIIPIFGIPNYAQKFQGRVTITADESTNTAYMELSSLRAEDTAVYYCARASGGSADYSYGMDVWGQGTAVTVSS
VL: DIQMTQSPSSLSASVGDRVTITCRASQGISSWLAWYQQKPEKAPKSLIYAASSLQSGVPSRFSGSGSGTDFTLTISSLQPEDFATYYCQQYKRYPYTFGQGTKLEIKR
notes: captured by anti-human IgG Fc
B2: 851C = anti-CD38 003 heavy chain & anti-CD19 3C10 light chain (antibody, V domains shown)
VH: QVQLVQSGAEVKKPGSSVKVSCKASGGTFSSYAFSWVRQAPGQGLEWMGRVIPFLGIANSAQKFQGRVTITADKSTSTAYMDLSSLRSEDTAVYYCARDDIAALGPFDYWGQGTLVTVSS
VL: B1 VL

Legend:
[1] = target: T2, CD38 on cells (CD38-transfected HEK293, Daudi, REH) (human, UniProt P28907 1-300); experiment: flow cytometry on CD38-transfected HEK293 cells, MFI against test article concentration
T2 construct: whole, on cells; also called HEK293-CD38

[2] = target: T3, CD38 (antigen in solution, Octet assays) (human, UniProt P28907 43-300, limits assumed); experiment: BLI (OctetRed96), antibody on anti-hIgG Fc capture sensor
T3 construct: also called Cluster of Differentiation 38; ADPRC1
Method: (§1) The binding affinities of parental and bispecific antibodies were determined using bio-layer interferometry. Binding experiments were performed on OctetRed96 at 25° C. using an assay Buffer consisting of 0.1% BSA, 1×PBS, 0.02% Tween-20, 0.05% NaN3. The antibodies were loaded onto Anti-hIgGFc Capture biosensors for 300 seconds. The ligand-loaded sensors were dipped into a series dilution (starting at 300 nM: two-fold series dilution for CD19 and three-fold series dilution for CD38) of the antigens for association (200 seconds for CD19 and 150 seconds for CD38) followed by dissociation (600 seconds for CD19 and 400 seconds for CD38). Kinetic constants were calculated using a monovalent (1:1) binding model.

[3] = target: T1, CD19 (antigen in solution, Octet assays); experiment: as above
Method: as §1

Row | Binder | binding result [1] | binding result [2] | binding result [3]
1 | B1 | no binding (tested: 133 nM) | no binding (tested: antigen dilutions starting at 300 nM) | –
2 | B2 | – | – | no binding (tested: antigen dilutions starting at 300 nM)
